# Experimental data published in article PMC5758891.
# T1: Lhr-(1-856) (UniProt A0QT91 1-856)
# T1 sequence: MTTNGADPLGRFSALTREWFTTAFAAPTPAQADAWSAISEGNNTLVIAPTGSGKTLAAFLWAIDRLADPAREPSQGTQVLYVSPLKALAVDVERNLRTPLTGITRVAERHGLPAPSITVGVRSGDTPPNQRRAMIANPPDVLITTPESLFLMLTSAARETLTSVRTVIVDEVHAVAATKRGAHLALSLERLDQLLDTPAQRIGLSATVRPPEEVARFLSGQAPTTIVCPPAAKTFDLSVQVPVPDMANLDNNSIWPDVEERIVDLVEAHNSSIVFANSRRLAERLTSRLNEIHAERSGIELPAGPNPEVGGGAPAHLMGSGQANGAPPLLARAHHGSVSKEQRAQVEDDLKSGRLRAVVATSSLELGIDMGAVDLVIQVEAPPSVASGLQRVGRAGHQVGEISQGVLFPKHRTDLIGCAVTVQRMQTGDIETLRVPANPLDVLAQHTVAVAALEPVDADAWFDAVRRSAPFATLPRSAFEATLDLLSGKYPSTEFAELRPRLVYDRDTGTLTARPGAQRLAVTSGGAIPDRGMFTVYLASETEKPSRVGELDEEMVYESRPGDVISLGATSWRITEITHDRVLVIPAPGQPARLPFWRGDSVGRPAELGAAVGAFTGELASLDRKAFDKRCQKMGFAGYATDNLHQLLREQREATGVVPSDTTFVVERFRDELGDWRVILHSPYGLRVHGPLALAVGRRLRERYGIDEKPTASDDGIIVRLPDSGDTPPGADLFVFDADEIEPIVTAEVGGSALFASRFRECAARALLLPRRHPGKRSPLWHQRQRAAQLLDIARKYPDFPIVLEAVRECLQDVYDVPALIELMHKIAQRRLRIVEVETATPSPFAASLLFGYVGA
# Target: T1, Lhr-(1-856)
# Assay: X-ray crystallography
binder,measurement,value
GACCTGCTGCGGATTG (ssDNA) [16-mer ssDNA],binding result,binds
